Data published in the supplement of paper PMC10065799, “High-throughput profiling of sequence recognition by tyrosine kinases and SH2 domains using bacterial peptide display” (eLife, 2023).

Tests used:
FGFR3 = FGFR3 (UniProt P22607); experiment: phosphorylation enrichment, bacterial display (enrichment ratio); higher = better substrate or ligand; peptides without Tyr show the background
Fer (mouse) = experiment: as above
EPHB2 = EPHB2 (UniProt P29323); experiment: as above
c-Abl (mouse) = experiment: as above
Fyn = Fyn (UniProt P06241); experiment: as above
Fyn, sequence (P06241 whole entry, looked up): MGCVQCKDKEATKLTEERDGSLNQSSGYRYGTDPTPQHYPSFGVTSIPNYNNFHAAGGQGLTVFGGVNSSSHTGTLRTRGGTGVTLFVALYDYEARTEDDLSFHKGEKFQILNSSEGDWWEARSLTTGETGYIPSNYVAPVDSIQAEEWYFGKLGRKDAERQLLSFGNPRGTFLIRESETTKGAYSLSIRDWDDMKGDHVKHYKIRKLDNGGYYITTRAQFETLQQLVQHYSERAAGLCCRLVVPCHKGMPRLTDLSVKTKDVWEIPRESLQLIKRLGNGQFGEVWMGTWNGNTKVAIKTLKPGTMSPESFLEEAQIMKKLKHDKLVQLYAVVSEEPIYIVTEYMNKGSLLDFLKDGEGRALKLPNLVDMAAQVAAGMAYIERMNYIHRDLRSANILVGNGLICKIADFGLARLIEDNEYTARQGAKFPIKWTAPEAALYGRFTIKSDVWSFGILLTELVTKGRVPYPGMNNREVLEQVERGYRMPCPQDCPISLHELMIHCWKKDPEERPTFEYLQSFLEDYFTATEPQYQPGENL

EPHB1 = EPHB1 (UniProt P54762); experiment: as above
Jak2 = Jak2 (UniProt O60674); experiment: as above
Jak2, sequence (O60674 whole entry, looked up): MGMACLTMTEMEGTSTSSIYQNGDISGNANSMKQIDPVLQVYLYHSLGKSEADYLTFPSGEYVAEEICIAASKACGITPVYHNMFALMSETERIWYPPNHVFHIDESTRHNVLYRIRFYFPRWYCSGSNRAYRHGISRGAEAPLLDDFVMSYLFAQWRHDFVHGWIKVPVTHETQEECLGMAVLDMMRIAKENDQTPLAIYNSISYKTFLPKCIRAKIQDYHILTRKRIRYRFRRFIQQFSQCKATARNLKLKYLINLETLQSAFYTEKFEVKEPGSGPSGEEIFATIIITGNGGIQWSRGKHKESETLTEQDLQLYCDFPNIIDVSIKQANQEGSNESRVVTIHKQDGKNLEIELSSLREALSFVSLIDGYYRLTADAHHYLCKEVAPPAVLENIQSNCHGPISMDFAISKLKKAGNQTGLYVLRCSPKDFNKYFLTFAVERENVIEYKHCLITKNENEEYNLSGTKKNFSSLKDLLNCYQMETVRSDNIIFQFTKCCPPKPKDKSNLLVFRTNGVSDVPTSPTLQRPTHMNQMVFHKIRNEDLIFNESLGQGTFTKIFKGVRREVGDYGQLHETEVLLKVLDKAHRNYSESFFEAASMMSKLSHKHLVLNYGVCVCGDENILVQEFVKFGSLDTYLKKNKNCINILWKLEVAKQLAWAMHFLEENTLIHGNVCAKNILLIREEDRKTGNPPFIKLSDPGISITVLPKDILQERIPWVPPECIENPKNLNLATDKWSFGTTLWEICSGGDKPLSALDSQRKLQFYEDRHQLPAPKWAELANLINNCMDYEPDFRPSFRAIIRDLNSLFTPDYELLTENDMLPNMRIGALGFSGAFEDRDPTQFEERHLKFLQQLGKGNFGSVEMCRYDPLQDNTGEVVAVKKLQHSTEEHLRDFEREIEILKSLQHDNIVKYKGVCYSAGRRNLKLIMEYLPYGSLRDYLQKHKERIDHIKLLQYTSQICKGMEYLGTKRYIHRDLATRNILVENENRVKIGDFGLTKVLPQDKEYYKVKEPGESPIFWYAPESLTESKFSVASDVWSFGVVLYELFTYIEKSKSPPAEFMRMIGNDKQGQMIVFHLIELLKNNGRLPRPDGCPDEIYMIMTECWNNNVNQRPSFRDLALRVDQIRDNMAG

FGFR1 = FGFR1 (UniProt P11362); experiment: as above
FGFR1, sequence (P11362 whole entry, looked up): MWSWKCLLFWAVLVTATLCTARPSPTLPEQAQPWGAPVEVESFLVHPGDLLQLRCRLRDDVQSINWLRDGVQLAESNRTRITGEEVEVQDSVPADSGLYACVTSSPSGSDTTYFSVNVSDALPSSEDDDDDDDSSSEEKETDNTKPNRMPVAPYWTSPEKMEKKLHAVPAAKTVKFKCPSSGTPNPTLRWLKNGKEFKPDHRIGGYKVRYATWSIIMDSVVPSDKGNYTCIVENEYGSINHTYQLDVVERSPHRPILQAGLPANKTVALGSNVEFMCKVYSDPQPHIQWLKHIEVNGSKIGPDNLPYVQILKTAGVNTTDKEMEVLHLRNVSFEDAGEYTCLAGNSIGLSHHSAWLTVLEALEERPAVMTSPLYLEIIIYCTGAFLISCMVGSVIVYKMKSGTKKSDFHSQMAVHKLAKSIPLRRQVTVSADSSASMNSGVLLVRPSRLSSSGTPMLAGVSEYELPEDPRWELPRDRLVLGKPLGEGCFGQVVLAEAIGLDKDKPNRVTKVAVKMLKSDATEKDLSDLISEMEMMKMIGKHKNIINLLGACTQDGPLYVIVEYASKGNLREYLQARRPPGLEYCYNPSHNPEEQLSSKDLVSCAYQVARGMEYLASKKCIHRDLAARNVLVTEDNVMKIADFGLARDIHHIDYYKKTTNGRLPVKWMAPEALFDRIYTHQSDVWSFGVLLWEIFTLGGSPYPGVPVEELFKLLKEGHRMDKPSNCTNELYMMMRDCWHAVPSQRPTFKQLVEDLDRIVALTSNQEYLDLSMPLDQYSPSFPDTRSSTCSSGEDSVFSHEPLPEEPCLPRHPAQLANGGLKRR

c-Src = experiment: as above
Hck = Hck (UniProt P08631); experiment: as above
Hck, sequence (P08631 whole entry, looked up): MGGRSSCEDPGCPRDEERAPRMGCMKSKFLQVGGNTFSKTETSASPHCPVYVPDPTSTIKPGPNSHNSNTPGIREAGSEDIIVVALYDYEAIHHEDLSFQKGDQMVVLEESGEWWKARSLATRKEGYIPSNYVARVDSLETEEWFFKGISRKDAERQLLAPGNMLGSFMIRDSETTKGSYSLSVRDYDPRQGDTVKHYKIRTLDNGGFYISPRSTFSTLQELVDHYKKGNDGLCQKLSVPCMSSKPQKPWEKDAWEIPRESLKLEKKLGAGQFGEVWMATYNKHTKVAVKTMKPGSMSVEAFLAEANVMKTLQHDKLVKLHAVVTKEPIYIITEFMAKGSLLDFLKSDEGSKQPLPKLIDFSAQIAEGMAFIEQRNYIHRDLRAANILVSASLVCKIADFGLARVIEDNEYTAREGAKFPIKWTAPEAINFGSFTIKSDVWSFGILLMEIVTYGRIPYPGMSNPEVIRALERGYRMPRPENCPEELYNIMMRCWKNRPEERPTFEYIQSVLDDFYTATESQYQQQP

AncSZ = experiment: as above
MERTK = MERTK (UniProt Q12866); experiment: as above
Fes = Fes (UniProt P07332); experiment: as above
c-Src SH2 = experiment: SH2 binding enrichment of the phosphorylated peptide, bacterial display (enrichment ratio); higher = better substrate or ligand; peptides without Tyr show the background
SHP2-C SH2 = experiment: as above
Grb2 SH2 = Grb2 SH2 (UniProt P62993); experiment: as above
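Wherever SH2 binding enrichment of the phosphorylated peptide, bacterial display is given: peptide library displayed on the E. coli surface as eCPX fusions, selected cells deep-sequenced, score is each peptide's frequency after selection divided by its frequency in the input.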
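Wherever phosphorylation enrichment, bacterial display is given: 11-residue human phosphosite peptides and single-mutation variants displayed on the E. coli surface, counted by deep sequencing, each peptide's frequency after selection divided by its frequency in the unselected input library; frequency after pTyr selection over input frequency; kinase dosed for 20-30% of maximal phosphorylation in three min.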

FGFR3, sequence (P22607 whole entry, looked up): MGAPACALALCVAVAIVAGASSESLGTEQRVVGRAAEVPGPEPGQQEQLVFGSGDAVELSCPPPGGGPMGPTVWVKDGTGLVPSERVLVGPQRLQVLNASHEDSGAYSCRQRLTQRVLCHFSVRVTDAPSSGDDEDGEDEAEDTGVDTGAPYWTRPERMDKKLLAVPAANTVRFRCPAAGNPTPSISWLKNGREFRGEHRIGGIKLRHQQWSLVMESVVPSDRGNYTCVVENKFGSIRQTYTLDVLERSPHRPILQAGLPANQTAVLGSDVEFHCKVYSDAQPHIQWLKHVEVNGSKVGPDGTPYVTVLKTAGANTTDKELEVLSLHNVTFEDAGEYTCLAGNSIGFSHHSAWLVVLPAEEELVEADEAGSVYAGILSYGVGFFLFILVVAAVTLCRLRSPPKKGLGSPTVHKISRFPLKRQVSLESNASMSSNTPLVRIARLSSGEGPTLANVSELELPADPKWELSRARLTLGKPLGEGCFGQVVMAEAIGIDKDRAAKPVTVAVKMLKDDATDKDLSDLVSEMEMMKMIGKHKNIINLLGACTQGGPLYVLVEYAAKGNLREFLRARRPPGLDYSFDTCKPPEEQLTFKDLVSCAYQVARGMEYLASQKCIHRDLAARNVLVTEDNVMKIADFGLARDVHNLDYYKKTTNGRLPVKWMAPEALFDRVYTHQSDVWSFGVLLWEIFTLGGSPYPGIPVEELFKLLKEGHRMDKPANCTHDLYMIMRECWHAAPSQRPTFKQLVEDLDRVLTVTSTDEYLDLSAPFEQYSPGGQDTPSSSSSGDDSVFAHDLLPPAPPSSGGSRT
EPHB2, sequence (P29323 whole entry, looked up): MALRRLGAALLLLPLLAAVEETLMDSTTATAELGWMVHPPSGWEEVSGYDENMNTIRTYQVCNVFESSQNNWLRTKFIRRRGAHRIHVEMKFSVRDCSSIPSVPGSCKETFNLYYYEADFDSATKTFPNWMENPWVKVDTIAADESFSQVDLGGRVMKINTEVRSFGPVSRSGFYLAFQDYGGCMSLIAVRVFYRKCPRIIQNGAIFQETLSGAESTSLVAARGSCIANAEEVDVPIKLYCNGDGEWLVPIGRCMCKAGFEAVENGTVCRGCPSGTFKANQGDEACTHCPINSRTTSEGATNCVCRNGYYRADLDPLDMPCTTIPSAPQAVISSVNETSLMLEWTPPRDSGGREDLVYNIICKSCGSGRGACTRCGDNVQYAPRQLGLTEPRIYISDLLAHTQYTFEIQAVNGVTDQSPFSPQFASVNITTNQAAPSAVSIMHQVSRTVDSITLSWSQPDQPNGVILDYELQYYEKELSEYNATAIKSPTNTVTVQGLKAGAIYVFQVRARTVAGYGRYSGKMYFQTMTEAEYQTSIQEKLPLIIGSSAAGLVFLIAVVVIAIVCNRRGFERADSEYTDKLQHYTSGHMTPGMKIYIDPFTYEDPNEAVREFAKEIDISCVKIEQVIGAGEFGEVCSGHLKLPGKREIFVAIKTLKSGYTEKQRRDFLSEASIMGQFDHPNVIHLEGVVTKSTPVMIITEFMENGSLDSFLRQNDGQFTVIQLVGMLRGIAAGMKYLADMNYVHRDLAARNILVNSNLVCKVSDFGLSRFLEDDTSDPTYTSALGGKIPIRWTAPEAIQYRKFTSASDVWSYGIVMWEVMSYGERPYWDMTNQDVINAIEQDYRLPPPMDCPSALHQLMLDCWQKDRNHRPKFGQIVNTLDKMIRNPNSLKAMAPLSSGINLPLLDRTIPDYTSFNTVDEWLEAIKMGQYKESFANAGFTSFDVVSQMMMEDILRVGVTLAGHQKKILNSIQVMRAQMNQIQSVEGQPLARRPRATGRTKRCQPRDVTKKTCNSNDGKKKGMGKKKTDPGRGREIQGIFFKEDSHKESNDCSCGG

Row | SH2 binding enrichment (c-Src SH2) | SH2 binding enrichment (SHP2-C SH2) | SH2 binding enrichment (Grb2 SH2) | Sequence | phosphorylation enrichment (FGFR3) | phosphorylation enrichment (Fer (mouse)) | phosphorylation enrichment (EPHB2) | phosphorylation enrichment (c-Abl (mouse)) | phosphorylation enrichment (Fyn) | phosphorylation enrichment (EPHB1) | phosphorylation enrichment (Jak2) | phosphorylation enrichment (FGFR1) | phosphorylation enrichment (c-Src) | phosphorylation enrichment (Hck) | phosphorylation enrichment (AncSZ) | phosphorylation enrichment (MERTK) | phosphorylation enrichment (Fes)
1 | 0.53 | 0.546 | 0.892 | KVGNGYISAAE [CALM2_Y100_D96V] | 0.588 | 0.476 | 0.468 | 0.538 | 0.337 | 0.4 | 0.485 | 0.456 | 0.391 | 0.393 | 0.619 | 0.42 | 0.65
2 | 0.699 | 0.615 | 0.948 | KVPAIYGVGTR [CPS1_Y162_D165G] | 0.402 | 0.377 | 0.391 | 0.923 | 2.27 | 0.424 | 0.562 | 0.362 | 2.44 | 5.68 | 0.47 | 0.527 | 0.576
3 | 0.493 | 0.656 | 0.875 | KVQVSYKGETK [HSPA1A_Y107] | 0.432 | 0.378 | 0.449 | 0.85 | 0.426 | 0.442 | 0.428 | 0.429 | 0.352 | 0.346 | 0.608 | 0.387 | 0.511
4 | 1.74 | 1.57 | 1.35 | KWRGQYDVAIR [BTK_Y425_K430R] | 0.533 | 0.512 | 0.454 | 0.539 | 0.446 | 0.498 | 0.461 | 0.426 | 0.389 | 0.451 | 0.96 | 0.341 | 0.698
5 | 0.549 | 0.766 | 0.886 | KWTVDYLSQVG [TYW5_Y48] | 0.63 | 0.391 | 0.494 | 0.635 | 0.443 | 0.602 | 0.887 | 0.605 | 0.466 | 0.462 | 0.953 | 0.373 | 1.05
6 | 1.02 | 0.982 | 1.04 | LAARFYNWVCF [FLT4_Y1231_S1235C_YF] | 2.11 | 2.79 | 1.03 | 1.39 | 0.849 | 1.33 | 2.59 | 1.65 | 1.21 | 0.967 | 1.87 | 1.17 | 2.8
7 | 1.12 | 1.11 | 1.23 | LAGRFYALKSM [CKB_Y174_YF] | 0.991 | 0.46 | 0.573 | 1.18 | 0.463 | 0.677 | 1.32 | 0.479 | 0.461 | 0.509 | 1.86 | 0.666 | 1.61
8 | 0.506 | 0.643 | 0.93 | LARDMYDKEFF [MET_Y1230_YF] | 0.596 | 0.464 | 0.564 | 0.519 | 0.507 | 0.515 | 0.702 | 0.517 | 0.382 | 0.539 | 0.685 | 0.396 | 0.945
9 | 1.37 | 0.614 | 0.881 | LARDMYDKEYY [MET_Y1230] | 0.973 | 0.71 | 0.627 | 0.652 | 0.624 | 0.815 | 1.41 | 0.921 | 0.673 | 0.765 | 1.83 | 0.449 | 1.43
10 | 0.519 | 0.935 | 1.14 | LDAFIYDAAVL [GRIN2A_Y730] | 0.868 | 20.3 | 3 | 6.28 | 9.56 | 2.63 | 0.827 | 0.879 | 6.55 | 7.32 | 1.18 | 3.04 | 1.53
11 | 0.862 | 1.08 | 1.17 | LDFNEYFRGLN [HPRT1_Y198_D201G_YF] | 0.933 | 0.62 | 1.41 | 0.799 | 0.746 | 0.832 | 1.92 | 0.788 | 0.595 | 0.873 | 1.29 | 0.714 | 1.45
12 | 0.55 | 0.788 | 0.752 | LEQGEYALRSH [HADHB_Y244_D242G] | 0.505 | 0.564 | 0.556 | 0.815 | 0.747 | 0.521 | 0.855 | 0.736 | 0.681 | 0.697 | 0.935 | 0.567 | 0.993
13 | 0.486 | 0.752 | 0.826 | LEQQKYTVTID [IKBKB_Y199_V203I] | 0.975 | 0.518 | 0.81 | 0.696 | 0.638 | 0.932 | 1.02 | 0.75 | 0.569 | 0.682 | 1.27 | 0.602 | 1.57
14 | 0.852 | 0.709 | 0.914 | LERYIYNREEL [HLA-DPB1_Y59_F64L] | 0.58 | 0.444 | 0.407 | 0.777 | 0.987 | 0.653 | 0.731 | 0.41 | 1.93 | 1.55 | 0.713 | 0.371 | 0.944
15 | 0.647 | 0.924 | 1.24 | LFEDCYLLGTS [ASS1_Y87_R86C_YF] | 1.15 | 0.752 | 0.716 | 1.17 | 1.01 | 0.572 | 1.39 | 0.895 | 1.6 | 0.58 | 2.1 | 0.442 | 1.5
16 | 0.407 | 0.806 | 0.446 | LFNQDYPIHCV [GATM_Y227_S231C_YF] | 2.52 | 1.03 | 0.889 | 1.11 | 0.777 | 1.32 | 1.17 | 4.54 | 0.33 | 0.555 | 1.43 | 0.729 | 1.49

Row | SH2 binding enrichment (c-Src SH2) | SH2 binding enrichment (SHP2-C SH2) | SH2 binding enrichment (Grb2 SH2) | Sequence | phosphorylation enrichment (FGFR3) | phosphorylation enrichment (Fer (mouse)) | phosphorylation enrichment (EPHB2) | phosphorylation enrichment (c-Abl (mouse)) | phosphorylation enrichment (Fyn) | phosphorylation enrichment (EPHB1) | phosphorylation enrichment (Jak2) | phosphorylation enrichment (FGFR1) | phosphorylation enrichment (c-Src) | phosphorylation enrichment (Hck) | phosphorylation enrichment (AncSZ) | phosphorylation enrichment (MERTK) | phosphorylation enrichment (Fes)
17 | 0.841 | 0.657 | 0.811 | LGGAMYYLEAE [PKHD1_Y452] | 2.46 | 0.667 | 1.25 | 1.2 | 2.54 | 1.62 | 1.42 | 2.22 | 2.14 | 1.4 | 1.42 | 1.74 | 1.61
18 | 0.462 | 0.487 | 0.87 | LGNFNYEQRGA [API5_Y497] | 0.507 | 0.408 | 0.456 | 0.715 | 0.435 | 0.474 | 0.919 | 0.569 | 0.43 | 0.485 | 0.761 | 0.392 | 0.986
19 | 1 | 0.95 | 0.986 | LGRTRYQDVTG [MIPEP_Y510_H512D] | 0.665 | 0.563 | 0.548 | 0.799 | 0.586 | 0.62 | 0.888 | 0.525 | 0.584 | 0.336 | 0.899 | 0.722 | 0.735
20 | 0.414 | 0.675 | 0.695 | LICRRYLVMQR [IL3RA_Y328_V323L] | 0.834 | 0.956 | 1.72 | 1.22 | 0.564 | 0.827 | 2.35 | 0.926 | 1.01 | 0.729 | 2.5 | 1.01 | 2.01
21 | 0.551 | 0.734 | 0.603 | LIDTVYSSSSA [OR4C12_Y71] | 1.32 | 0.96 | 0.782 | 1.03 | 3.74 | 0.757 | 1.19 | 0.979 | 3.25 | 3.42 | 1.06 | 0.641 | 1.57
22 | 1.01 | 1.53 | 1.68 | LIFVSYDDWDF [GRIN2A_Y281_S278F_YF] | 2.55 | 17.4 | 2.89 | 2.77 | 1.02 | 2.23 | 4.29 | 1.38 | 1.79 | 1.1 | 4.68 | 2.03 | 4.34
23 | 0.455 | 0.983 | 0.912 | LKDEDYLKDIV [HAUS3_Y582] | 0.988 | 1.4 | 0.843 | 1.64 | 0.791 | 0.861 | 2.87 | 1.04 | 1.02 | 0.787 | 2.21 | 0.884 | 1.85
24 | 0.531 | 0.721 | 0.757 | LKMLVYLDMSK [LRRC7_Y234] | 1.13 | 0.475 | 0.805 | 1.18 | 0.654 | 1.01 | 1.24 | 0.347 | 0.441 | 0.559 | 1.36 | 0.545 | 1.72
25 | 1.23 | 1.18 | 1.4 | LKRIAYFLCLL [LGI1_Y21] | 0.741 | 0.714 | 0.536 | 0.821 | 0.506 | 0.64 | 1.09 | 0.696 | 0.484 | 0.394 | 1.05 | 0.424 | 1.53
26 | 0.464 | 1.12 | 1.17 | LKTNWYNNGKD [DNMT3B_Y404_C403W] | 1.05 | 0.644 | 0.688 | 1.62 | 0.544 | 0.468 | 1.18 | 0.664 | 0.838 | 1.01 | 1.54 | 0.736 | 1.44
27 | 1.14 | 1.9 | 1.69 | LLLLFYVVRFC [MPZ_Y177_YF] | 0.742 | 1.14 | 0.443 | 0.863 | 0.637 | 0.741 | 0.664 | 1.47 | 0.726 | 0.472 | 0.918 | 0.805 | 1.21
28 | 1.27 | 0.803 | 0.805 | LLQAEYWHDPI [PPT1_Y185_V181L] | 3.92 | 0.74 | 0.511 | 1.62 | 0.975 | 0.682 | 1.55 | 4.99 | 0.864 | 0.667 | 1.89 | 0.726 | 1.96
29 | 1.57 | 1.84 | 1.82 | LLVVLCKFRCF [PSEN1_Y154_Y154C_YF] | 0.999 | 0.722 | 0.694 | 1.23 | 0.731 | 0.619 | 1.82 | 0.648 | 1.48 | 0.887 | 1.4 | 0.984 | 1.73
30 | 0.556 | 0.776 | 1.16 | LMLVLYGRIFL [HTR1A_Y215_R220L] | 0.968 | 0.745 | 0.692 | 0.996 | 0.433 | 1.11 | 1.28 | 0.851 | 0.778 | 0.654 | 1.11 | 0.651 | 1.93
31 | 0.415 | 0.53 | 0.761 | LNERHYGGLTG [PGAM2_Y92] | 0.552 | 0.394 | 0.432 | 0.789 | 0.53 | 0.417 | 4.09 | 0.607 | 0.47 | 0.454 | 0.679 | 0.527 | 0.856

Row | Sequence | SH2 binding enrichment (c-Src SH2) | SH2 binding enrichment (SHP2-C SH2) | SH2 binding enrichment (Grb2 SH2) | phosphorylation enrichment (FGFR3) | phosphorylation enrichment (Fer (mouse)) | phosphorylation enrichment (EPHB2) | phosphorylation enrichment (c-Abl (mouse)) | phosphorylation enrichment (Fyn) | phosphorylation enrichment (EPHB1) | phosphorylation enrichment (Jak2) | phosphorylation enrichment (FGFR1) | phosphorylation enrichment (c-Src) | phosphorylation enrichment (Hck) | phosphorylation enrichment (AncSZ) | phosphorylation enrichment (MERTK) | phosphorylation enrichment (Fes)
32 | LKKKQYTSIHH [APP_Y728] | 1.89 | 2.63 | 1.53 | 0.903 | 0.688 | 0.605 | 1.39 | 0.92 | 0.739 | 0.949 | 0.631 | 1.03 | 0.869 | 0.631 | 0.508 | 0.787
33 | LLTALYFISRG [KCNH2_Y780] | 2.43 | 1.99 | 2.34 | 0.71 | 0.716 | 0.859 | 1.05 | 0.732 | 0.645 | 1.25 | 0.8 | 1.81 | 1.24 | 1.57 | 3.27 | 1.69
